Reference: IntAct's records for PubMed 27284196

B1: Transcriptional regulator LdrP (Thermus thermophilus (strain HB8 / ATCC 27634 / DSM 579)), Q53W63 (parent)
chain: MKRFARKETIYLRGEEARTLYRLEEGLVRVVELLPDGRLITLRHVLPGDYFGEEALEGKAYRYTAEAMTEAVVQGLEPRAMDHEALHRVARNLARQMRRVQAYEAHLQTGELRARIARYLLFLADTPLSARDRQGIYVTVSHEEIADATASIRESVSKVLADLRREGLIATAYRRVYLLDLAALEREAGSALEAA
partner: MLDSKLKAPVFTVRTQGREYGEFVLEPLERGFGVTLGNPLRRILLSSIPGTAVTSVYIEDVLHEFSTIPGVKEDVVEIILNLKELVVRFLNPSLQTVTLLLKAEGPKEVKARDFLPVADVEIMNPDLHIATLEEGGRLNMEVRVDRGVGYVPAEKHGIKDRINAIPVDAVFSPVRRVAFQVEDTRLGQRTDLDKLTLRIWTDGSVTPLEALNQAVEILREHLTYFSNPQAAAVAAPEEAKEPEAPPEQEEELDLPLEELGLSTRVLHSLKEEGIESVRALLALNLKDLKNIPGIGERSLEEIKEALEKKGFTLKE

Variants of: B1
Conditions: with rpoa_thet8 rpoA

effect of a mutation on the interaction | Variant
disrupting interaction strength | E185K
disrupting interaction strength | D125K
